From the supplement of paper PMC10567573 come the findings set out here.

The data set can be described thus: protein stability index of a GFP-peptide fusion (GPS, HEK-293T) (PSI 1-6); higher = more stable.
The mark [1] stands for this setting: treatment: DMSO, c terminus: a fixed tail appended.
Where [2] appears, read: treatment: MLN4924 1 uM, 8 h, c terminus: a fixed tail appended.

± gives the standard deviation.
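Also: 24-mer peptide tiles fused after GFP, lentivirally expressed, FACS-sorted into six equal bins by GFP/DsRed ratio, decoded by Illumina sequencing, PSI is the read-weighted mean bin number.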

HLEINPDHPIVETLRQKAEADKND [HSP90AB1]: the protein stability index amounted to 5.58 ± 0.2 under setting [1] and 5.56 ± 0.1 under setting [2].
On the same counts, the results for HLPWQYHAGQGGLFYSAEVEMLCD [CCDC3] are 2.94 ± 0.44 and 2.52 ± 0.2.
For the sequence HMAKERAHSTASHSSSNSEDTEM [PDZK1], the protein stability index (treatment: DMSO, c terminus: native) worked out at 5.48 ± 0.26 and the protein stability index (treatment: MLN4924 1 uM, 8 h, c terminus: native) was determined as 5.39 ± 0.27.
Regarding HNCVDLMQAAEVFSQKHFPEVVQH [KLHL12], the protein stability index is, setting by setting: under setting [1], 3.17 ± 0.16; under setting [2], 3.14 ± 0.38.
On the same counts, the results for HNRKVLTIFSASNYYEVGSNRGAY [PPEF2] are 2.44 ± 0.28 and 2.46 ± 0.24.
Regarding HPAATALHAELCQAGSSQGLSLCQ [LPCAT4], the protein stability index by setting is: under setting [1], 4.22 ± 0.29; under setting [2], 4.13 ± 0.16.
The matching figures for HPIEEAAEEHREKLLKQMRILWKK [TRIM43]: 3.45 ± 0.39 and 3.7 ± 0.58.
On the same counts, the results for HPLAYGMVGPLAQDPQSPMAGLRW [POMT2] are 2.85 ± 0.39 and 2.77 ± 0.18.
The matching figures for HQDVDLVCINLPPPLTRQIAVKTL [GFOD1]: 2.47 ± 0.33 and 2.53 ± 0.27.
Regarding HRQETVDCLKKFNARRKLKGAILT [CAMK2D], the protein stability index reads like this: under setting [1], 2.69 ± 0.52; under setting [2], 2.71 ± 0.22.
On the same counts, the results for HSEKMAQYLEEERHMREENLRLQR [CCDC6] are 4.91 ± 0.07 and 4.56 ± 0.25.
The matching figures for HSGYDFGYLIKILTNSNLPEEELD [CNOT7]: 2.27 ± 0.19 and 2.48 ± 0.3.
On the same counts, the results for HSLERAGSKQYSAAIAFTLALFSH [SMG5] are 2.48 ± 0.41 and 2.49 ± 0.44.
For the sequence IAVLPRYVEIRTFEPRLLVQSIEL [VPS39], the protein stability index is, setting by setting: under setting [1], 2.97 ± 0.57; under setting [2], 2.88 ± 0.38.
On the same counts, the results for IDEYCVQQLKEFDGKSLVSVTKEG [HSP90AB1] are 5.19 ± 0.25 and 4.99 ± 0.14.
On the same counts, the results for IDGVATTRYSVAGLSPYSDYEFRV [PTPRD] are 2.02 ± 0.24 and 2.02 ± 0.29.
On the same counts, the results for IEGAPEVTMSSLFKHILRTEGAFG [SLC25A25] are 2.31 ± 0.39 and 2.63 ± 0.13.
Regarding IFCIKRFTKNNFFVEKNPTIVNFP [USP39], the protein stability index reads like this: under setting [1], 3.02 ± 0.74; under setting [2], 2.38 ± 0.76.
On the same counts, the results for IFLFQDILVLTRPVTRNERHSYQV [NET1] are 2.58 ± 0.28 and 2.27 ± 0.27.
The matching figures for IGLRLVLEYLYTANVTLSLDTVEE [KLHL14]: 2.96 ± 0.5 and 3.02 ± 0.47.
The matching figures for IGNLVKILHGTRGELLLDVAWHPV [RBBP5]: 2.72 ± 0.41 and 2.65 ± 0.43.
As for IGRAAGTGFTVNVAWNGPRMGDAD [HDAC6], the protein stability index amounted to 3.02 ± 0.28 under setting [1] and 3.15 ± 0.32 under setting [2].
The matching figures for IHAYNLGTNAWEEIATKPHEKIGF [KLHDC10]: 2.48 ± 0.15 and 2.57 ± 0.54.
As for IHPKNPHAPTIHFNYRYFEVEEAD [CPOX], the protein stability index turned out to be 3.75 ± 0.18 under setting [1] and 3.88 ± 0.17 under setting [2].
Consider IKELYENFCKHNGSKNVFSTFRTP [ATL3], for which the protein stability index by setting is: under setting [1], 2.24 ± 0.36; under setting [2], 2.29 ± 0.39.
On the same counts, the results for IKQIQQLFEEILSNSRQLKWLSCG [FBXO33] are 3.57 ± 1.6 and 1.94 ± 0.58.
The matching figures for ILELVVLEQFVAILPKELQTWVRD [ZNF24]: 2.35 ± 0.54 and 2.45 ± 0.46.
Consider ILGPSSAYTQTQFHNLRNTLDGYG [NFE2L1], for which the protein stability index by setting is: under setting [1], 2.46 ± 0.17; under setting [2], 2.33 ± 0.25.
As for ILVLTRPVTRNERHSYQVYRQPIP [NET1], the protein stability index worked out at 2.33 ± 0.51 under setting [1] and 2.11 ± 0.38 under setting [2].
Regarding IMTVKEDQFSALGLDPCLLEDELD [SLC6A17], the protein stability index worked out at 4.45 ± 0.33 under setting [1] and 4.46 ± 0.3 under setting [2].
As to INNGDFEAYTKICDPGLTAFEPEA [CAMK2D], the protein stability index under setting [1] is 4.08 ± 0.41 and the protein stability index under setting [2] amounted to 4.36 ± 0.18.
In turn, INSIIHNPRAPVIIYKQTKGGVQN [CEP70] showed a protein stability index under setting [1] of 2.86 ± 0.43 and a protein stability index under setting [2] of 3.34 ± 0.51.
The matching figures for IPAGARDIQIVERKKSADVLALAD [ADAMTSL2]: 4.68 ± 0.32 and 4.86 ± 0.38.
On the same counts, the results for IPVAMEHQPPYIIAVLPRYVEIRT [VPS39] are 2.6 ± 0.48 and 2.44 ± 0.46.
The matching figures for IQAINGESTELMTHLEAQNRIKGC [PDLIM4]: 4.1 ± 0.19 and 4.15 ± 0.14.
As to IRHNLSLNKCFIKVPREKDEPGKG [FOXJ1], the protein stability index by setting is: under setting [1], 3.78 ± 0.3; under setting [2], 3.9 ± 0.2.
On the same counts, the results for IRLKESINCQLSDPSSTKPGTLLK [TRIM14] are 3.28 ± 0.3 and 3.48 ± 0.33.
On the same counts, the results for IRMIQEEKESTELRAEEIETRVTS [PPFIA4] are 5.22 ± 0.33 and 5.21 ± 0.38.
The matching figures for ISCVICNDIMAYMFGFFFGRTPLI [CDS2]: 3.31 ± 0.35 and 2.92 ± 0.48.
Take ISEKLTLLPTLYEIHSKTTAYSRL [RNF180]: the protein stability index turned out to be 2.51 ± 0.29 under setting [1] and 2.06 ± 0.085 under setting [2].
Regarding ISRAQYNALTLTFQRAMHDYNQAE [STX11], the protein stability index reads like this: under setting [1], 2.21 ± 0.14; under setting [2], 2.35 ± 0.14.
On the same counts, the results for ISSGVVSIWAQNQVENWSAFAPDF [RBBP5] are 2.44 ± 0.3 and 2.4 ± 0.25.
In the case of KAEELDRRERELQHAALGGTATRQ [SCAMP3], the protein stability index by setting is: under setting [1], 5.15 ± 0.12; under setting [2], 5.21 ± 0.22.
On the same counts, the results for KAQLLEQAQGQLRELLDRAMREAI [SOAT2] are 2.29 ± 0.33 and 2.37 ± 0.42.
On the same counts, the results for KDAPCYESDTDIYETVAAATSEST [DRICH1] are 5.4 ± 0.15 and 5.38 ± 0.1.
The matching figures for KDGKAFHPTYEEKLKLVALHKQVL [ACBD3]: 2.68 ± 0.33 and 2.65 ± 0.11.
For KDLDGMDADILGLKKSNSAPSKKA [FBF1], the protein stability index is 5.03 ± 0.22 under setting [1] and 5 ± 0.18 under setting [2].
The matching figures for KEKTAKHFFALKVMSIPDVIRLKQ [PRKX]: 2.44 ± 0.23 and 2.22 ± 0.2.
The matching figures for KEKWWDGQRDRKAEHWKHKKEESG [PBXIP1]: 4.54 ± 0.21 and 4.66 ± 0.52.
For KERPLVIGHFNTASGVGFILGPVV [MFSD9], the protein stability index runs as follows: under setting [1], 3.04 ± 1.1; under setting [2], 2.77 ± 0.51.
The matching figures for KESAQCVGDEFLNCKLATRAKDFL [SNX8]: 3.32 ± 0.2 and 3.21 ± 0.36.
The matching figures for KFAGSFYFAITVITTIGYGHAAPG [KCNK9]: 3.42 ± 0.31 and 3.27 ± 0.17.
On the same counts, the results for KGGEERKAEGGEEDSLGCLTADTK [IRX6] are 5.44 ± 0.25 and 5.52 ± 0.16.
With KGTFKDYVRDRADLNKDKPVIPAA [ETS1], the protein stability index runs as follows: under setting [1], 4.35 ± 0.13; under setting [2], 4.43 ± 0.16.
The matching figures for KGTILKASVDYIRKLQKEQQRSKD [TFE3]: 3.41 ± 0.19 and 3.79 ± 0.38.
The matching figures for KILISGLEPSTPYRFLLYGLHEGK [TNXB]: 2.75 ± 0.77 and 3.54 ± 2.4.
KIMADIRAQYDELARKNREELDKY [KRT18] came in with a protein stability index under setting [1] of 3.07 ± 0.15 and a protein stability index under setting [2] of 3.19 ± 0.35.
Regarding KINLQGDIVDRGSTNLGVNQAGFT [ADD1], the protein stability index was 3.74 ± 0.25 under setting [1] and 3.83 ± 0.19 under setting [2].
The matching figures for KKFRTKSRTWAGEKSKREMYSRLK [CDC25A]: 3.05 ± 0.39 and 3.46 ± 0.28.
The matching figures for KKKCLEWLLNNLMTHQNVELFKEL [GMCL1]: 2.54 ± 0.17 and 2.83 ± 0.78.
On the same counts, the results for KKKKIGFYFEVCGMMVESVNAKTL [PCDHGA10] are 2.28 ± 0.68 and 2.18 ± 0.38.
Turning to KKLHKIQNKAQRQKDLIMKVENLT [TAF7L], the protein stability index is, setting by setting: under setting [1], 3.23 ± 0.17; under setting [2], 3.37 ± 0.12.
KKVLKKMLKFLAKGEVPKGSCEDE [ATE1]: the protein stability index came to 2.11 ± 0.25 under setting [1] and 2.25 ± 0.47 under setting [2].
On the same counts, the results for KLAIIPGGGGTQRLPRAIGMSLAK [AUH] are 2.79 ± 0.05 and 2.88 ± 0.52.
On the same counts, the results for KLKDLSTVTSLQVPVLKPMDLMVE [PPP2R2C] are 3.33 ± 0.31 and 3.43 ± 0.27.
The matching figures for KLQQLPADFGRLVNLQHLDLLNNK [LRRC59]: 2.97 ± 0.27 and 3.01 ± 0.33.
Sequence KLQREMERREALCRQLSESESSLE [CCDC6] displayed a protein stability index under setting [1] of 4.68 ± 0.18 and a protein stability index under setting [2] of 4.85 ± 0.16.
Regarding KMKQLTEETEVLAHEIERLQMEMK [TRIM35], the protein stability index amounted to 4.06 ± 0.55 under setting [1] and 3.63 ± 0.28 under setting [2].
As for KNERLWLLDDSKTWWRVRNAANRT [NCK2], the protein stability index by setting is: under setting [1], 2.31 ± 0.23; under setting [2], 2.62 ± 0.37.
For the sequence KNIFGTPEFVAPEIVNYEPLGLEA [DAPK3], the protein stability index by setting is: under setting [1], 3.95 ± 0.23; under setting [2], 4.26 ± 0.51.
In the case of KPDGSRHQDVPSQDDSKPTQRQFT [AASDHPPT], the protein stability index under setting [1] is 5.44 ± 0.14 and the protein stability index under setting [2] worked out at 5.353 ± 0.026.
On the same counts, the results for KPHRLGDSEHEPVYRAELVGELNG [PWWP2B] are 5.01 ± 0.13 and 4.5 ± 0.4.
